# From patent publication US20260242485A1 (LEPU BIOPHARMA, published 2026)
# T1: mouse CCR8 expressed on CHO-K1 cells (mouse, UniProt P56484 1-353)
# T1 construct: whole, on cells; also called mCCR8; murine CCR8
# T1 sequence (looked up): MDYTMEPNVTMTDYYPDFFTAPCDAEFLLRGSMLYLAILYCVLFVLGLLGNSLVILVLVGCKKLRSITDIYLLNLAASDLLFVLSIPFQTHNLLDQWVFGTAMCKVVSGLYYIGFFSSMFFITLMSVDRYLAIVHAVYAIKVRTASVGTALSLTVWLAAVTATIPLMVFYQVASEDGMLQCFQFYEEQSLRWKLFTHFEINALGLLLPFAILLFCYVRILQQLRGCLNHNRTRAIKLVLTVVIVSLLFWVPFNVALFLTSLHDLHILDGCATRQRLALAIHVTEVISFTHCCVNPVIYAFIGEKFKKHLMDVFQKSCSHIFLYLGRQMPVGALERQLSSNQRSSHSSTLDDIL
# Legend:
# [1] = target: T2, human CD16A-158V expressed on CHO-K1 cells (human, UniProt P08637 17-254); test: flow cytometry, CHO-K1-hCD16A-158V cells, Alexa Fluor 647 anti-human IgG Fc, geometric mean
# T2 construct: whole, on cells; also called hCD16A-158V; CHO-K1-hCD16A-158V
# T2 sequence (P08637 17-254 F176V): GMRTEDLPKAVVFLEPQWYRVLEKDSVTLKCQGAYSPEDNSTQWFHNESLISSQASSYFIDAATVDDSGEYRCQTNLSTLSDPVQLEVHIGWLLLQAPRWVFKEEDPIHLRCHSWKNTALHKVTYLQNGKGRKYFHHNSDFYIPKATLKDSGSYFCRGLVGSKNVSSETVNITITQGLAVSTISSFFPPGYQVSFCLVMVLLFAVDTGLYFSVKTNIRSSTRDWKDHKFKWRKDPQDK
# Procedure: (§1) In order to evaluate the binding activity of the chimeric mAbs to human CD16A expressed on cells, cell-based binding assay was employed as followed. […] The antibody dilutions were incubated with 1×10⁵ indicated cells in the 96-well microplate for one hour at 4° C. The antibodies binding to the antigen on the cell surface were detected with PE fluorophore-conjugated anti-human IgG Fc secondary antibodies (ThermoFisher scientific, Cat. No. 12-4998-82) at a dilution rate of 1:1000. Cells were analyzed by flow cytometer LSRFortessa Cell Analyzer (BD Biosciences). Data were analyzed with Flowjo 10.0 software. The graph and statistics analysis were generated with four-parameter nonlinear regression curve fit in Graphpad Prism 9 software.
# (§2) The assay was performed following the protocol described above. The antibodies binding to the antigen on the cell surface were detected with Alexa Fluor® 647 AffiniPure™ F(ab′)₂ fragment goat anti-human IgG Fcγ fragment specific secondary antibody (Jackson Immuno Research, Cat. No. 109-606-098) at a dilution rate of 1:2000.
# [2] = target: T3, cynomolgus CD16 expressed on CHO-K1 cells (cynomolgus, UniProt Q8SPW2 17-254); test: flow cytometry, CHO-K1-cyno CD16 cells, geometric mean
# T3 construct: whole, on cells; also called cyno CD16; CHO-K1-cynoCD16
# T3 sequence (Q8SPW2 17-254): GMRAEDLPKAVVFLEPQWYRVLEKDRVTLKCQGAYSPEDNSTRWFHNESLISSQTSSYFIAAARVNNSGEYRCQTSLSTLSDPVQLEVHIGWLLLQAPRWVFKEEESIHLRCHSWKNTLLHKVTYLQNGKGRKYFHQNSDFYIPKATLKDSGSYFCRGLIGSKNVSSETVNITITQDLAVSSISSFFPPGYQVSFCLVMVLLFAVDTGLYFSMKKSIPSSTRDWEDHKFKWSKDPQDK
# Procedure: as §1
# (§3) The assay was performed following the protocol described above.
# [3] = target: T4, human CD16A-158F expressed on CHO-K1 cells (human, UniProt P08637 17-254); test: flow cytometry, CHO-K1-hCD16A-158F cells, geometric mean
# T4 construct: whole, on cells
# T4 sequence (P08637 17-254): as the sequence (P08637 17-254 F176V) above, with V160F counted along it
# Procedure: as §1, §3
# [4] = target: T2, human CD16A-158V expressed on CHO-K1 …; test: flow cytometry, CHO-K1-hCD16A-158V cells, geometric mean
# Procedure: as §1, §3
# [5] = target: T4, human CD16A-158F expressed on CHO-K1 …; test: flow cytometry, CHO-K1-hCD16A-158F cells, Alexa Fluor 647 anti-human IgG Fc, geometric mean
# Procedure: as §1, §2
# [6] = target: T3, cynomolgus CD16 expressed on CHO-K1 …; test: flow cytometry, CHO-K1-cyno CD16 cells, Alexa Fluor 647 anti-human IgG Fc, geometric mean
# Procedure: as §1, §2
# [7] = target: T5, human CD16B-NA1 expressed on CHO-K1 cells (human, UniProt O75015 17-200); test: flow cytometry, CHO-K1-hCD16B-NA1 cells, Alexa Fluor 647 anti-human IgG Fc, geometric mean
# T5 construct: whole, on cells; also called hCD16B-NA1; CHO-K1-hCD16B-NA1
# T5 sequence (O75015 other isoform, or with tags, fused parts or gaps): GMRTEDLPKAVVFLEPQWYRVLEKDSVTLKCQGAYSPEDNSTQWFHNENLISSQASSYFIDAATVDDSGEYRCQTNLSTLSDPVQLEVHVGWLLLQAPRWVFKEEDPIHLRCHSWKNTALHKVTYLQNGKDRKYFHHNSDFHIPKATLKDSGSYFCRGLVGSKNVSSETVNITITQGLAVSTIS
# Procedure: as §1, §2
# [8] = target: T5, human CD16B-NA1 expressed on CHO-K1 …; test: flow cytometry, CHO-K1-hCD16B-NA1 cells, geometric mean
# [9] = target: T4, human CD16A-158F expressed on CHO-K1 …; test: flow cytometry, CHO-K1-hCD16A-158F cells, geometric mean; remark: listed apart in the source
# [10] = target: T2, human CD16A-158V expressed on CHO-K1 …; test: flow cytometry, CHO-K1-hCD16A-158V cells, geometric mean; remark: listed apart in the source
# [11] = target: T6, human GPC3 on HepG2 cells (human, UniProt P51654 25-554); test: flow cytometry, HepG2 cells (GPC3 positive), geometric mean
# T6 construct: whole, on cells; also called GPC3-positive HepG2 cells
# T6 sequence (P51654 25-554 limits assumed): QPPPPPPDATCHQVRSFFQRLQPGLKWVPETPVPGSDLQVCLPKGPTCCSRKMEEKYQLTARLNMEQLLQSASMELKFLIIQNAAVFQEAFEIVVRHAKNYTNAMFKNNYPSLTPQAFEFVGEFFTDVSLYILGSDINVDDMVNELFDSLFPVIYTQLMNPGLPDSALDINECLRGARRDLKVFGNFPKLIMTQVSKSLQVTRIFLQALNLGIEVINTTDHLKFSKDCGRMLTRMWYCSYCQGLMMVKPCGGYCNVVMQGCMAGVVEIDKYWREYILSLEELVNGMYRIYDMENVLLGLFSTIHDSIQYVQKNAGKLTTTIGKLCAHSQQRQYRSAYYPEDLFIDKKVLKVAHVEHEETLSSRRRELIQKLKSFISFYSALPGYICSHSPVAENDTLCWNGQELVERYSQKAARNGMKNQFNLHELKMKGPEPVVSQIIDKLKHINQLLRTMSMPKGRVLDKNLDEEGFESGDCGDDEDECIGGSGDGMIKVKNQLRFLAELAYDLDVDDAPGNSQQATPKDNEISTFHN
# [12] = target: T1, mouse CCR8 expressed on CHO-K1 cells; test: flow cytometry, CHO-K1 mCCR8 cells (CHO-K1 NC parental cells as control), PE anti-human IgG Fc, geometric mean
# Procedure: (§4) Briefly, HEK293 hCCR8 cell line, CHO-K1 mCCR8 cell line and the parental cell lines were first incubated with serially diluted 194A1G9 at 4° C. for 30 mins. After washing by FACS buffer, PE Goat anti-Human IgG Fc Secondary Antibody (eBioscience™, Invitrogen) was added to each well and incubated at 4° C. for 30 mins. Samples were washed twice with FACS staining buffer. The mean florescence intensity (MFI) of PE was evaluated by MACSQuant Analyzer 16.
# [13] = target: T7, human CCR8 expressed on cells (human, UniProt P51685 1-355); test: flow cytometry, HEK293 hCCR8 cells (HEK293 NC parental cells as control), PE anti-human IgG Fc, geometric mean
# T7 construct: whole, on cells; also called hCCR8; HEK293 hCCR8 cell line
# T7 sequence (P51685 whole entry): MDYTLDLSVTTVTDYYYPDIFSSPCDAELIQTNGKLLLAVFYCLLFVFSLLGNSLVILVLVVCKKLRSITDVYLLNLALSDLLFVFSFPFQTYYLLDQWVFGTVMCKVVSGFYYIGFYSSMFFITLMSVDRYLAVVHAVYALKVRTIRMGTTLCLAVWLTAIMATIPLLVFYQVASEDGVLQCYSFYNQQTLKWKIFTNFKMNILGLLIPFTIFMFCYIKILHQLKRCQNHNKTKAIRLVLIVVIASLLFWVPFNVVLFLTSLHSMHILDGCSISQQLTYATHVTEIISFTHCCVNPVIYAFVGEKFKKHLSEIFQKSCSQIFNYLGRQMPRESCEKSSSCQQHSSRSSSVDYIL
# Procedure: as §4
EC50 (read off the curve) [1] [nM],EC50 (read off the curve) [2] [nM],EC50 (read off the curve) [3] [nM],EC50 (read off the curve) [4] [nM],EC50 (read off the curve) [5] [nM],EC50 (read off the curve) [6] [nM],binding result [7],binding result [8],EC50 (read off the curve) [9] [nM],EC50 (read off the curve) [10] [nM],binding result [11],EC50 (read off the curve) [12] [nM],EC50 (read off the curve) [13] [nM],Binder
~0.4,~0.7,~0.4,~0.4,~0.4,~1,no binding (tested: 100 nM),–,–,–,–,–,–,"45H6E8-z19 (antibody, human IgG1, V domains shown, Human IgG1 LALAPG constant region; also called HU-VH1-6 / HU-VL1-3) VH: QVQLVQSGAEVKKPGASVKVSCKVSGYTLTDYYMQWVRQAPGKGLEWIGWIDPENGDTEYAPKFQGRVTMTADTSTDTAYMELSSLRSEDTAVYYCTTGGNYVDWGQGTTVTVSS VL: DIQMTQSPSFLSASVGDRVTITCKASQNVGTAVAWYQQKPGKAPKLLIYSASNRYTGVPDRFSGSGSGTDFTLTISSLQPEDFATYFCQQYSSYPLLTFGQGTRLEIK"
~0.4,~0.8,~0.4,~0.4,~0.4,~1,no binding (tested: 100 nM),–,–,–,–,–,–,"45H6E8-z20 (antibody, human IgG1, V domains shown, Human IgG1 LALAPG constant region; also called HU-VH1-7 / HU-VL1-3) VH: QVQLVQSGAEVKKPGASVKVSCKVSGYTLTDYYMQWVRQAPGKGLEWMGWIDPENGDTEYAPKFQGRATMTADTSTDTAYMELSSLRSEDTAVYYCTTGGNYVDWGQGTTVTVSS VL: DIQMTQSPSFLSASVGDRVTITCKASQNVGTAVAWYQQKPGKAPKLLIYSASNRYTGVPDRFSGSGSGTDFTLTISSLQPEDFATYFCQQYSSYPLLTFGQGTRLEIK"
–,~0.7,~0.4,~0.4,–,–,–,no binding (tested: 100 nM),–,–,–,–,–,"45H6E8-z20p1 (antibody, V domains shown, PTM-removed version of z20) VH: QVQLVQSGAEVKKPGASVKVSCKVSGYTLTDYYMQWVRQAPGKGLEWMGWIDPEQGDTEYAPKFQGRATMTADTSTDTAYMELSSLRSEDTAVYYCTTGGNYVDWGQGTTVTVSS VL: DIQMTQSPSFLSASVGDRVTITCKASQNVGTAVAWYQQKPGKAPKLLIYSASNRYTGVPDRFSGSGSGTDFTLTISSLQPEDFATYFCQQYSSYPLLTFGQGTRLEIK"
–,~0.7,~0.4,~0.4,–,–,–,no binding (tested: 100 nM),~0.5,~0.5,no binding (tested: 100 nM),–,–,"45H6E8-z19p1 (antibody, V domains shown, PTM-removed (N to Q in VH CDR2) version of z19) VH: QVQLVQSGAEVKKPGASVKVSCKVSGYTLTDYYMQWVRQAPGKGLEWIGWIDPEQGDTEYAPKFQGRVTMTADTSTDTAYMELSSLRSEDTAVYYCTTGGNYVDWGQGTTVTVSS VL: DIQMTQSPSFLSASVGDRVTITCKASQNVGTAVAWYQQKPGKAPKLLIYSASNRYTGVPDRFSGSGSGTDFTLTISSLQPEDFATYFCQQYSSYPLLTFGQGTRLEIK"
–,–,–,–,–,–,–,–,–,–,–,~5,~0.1,"194A1G9 (antibody, V domains shown, Detected with anti-human IgG Fc, so with a human Fc; also called surrogate anti-CCR8 antibody 194A1G9; in house anti-mCCR8 clone 194A1G9) VH: QVQLQQSGTELVRPGASVTLSCKASGYTFTDHEMYWVKQTPVHGLEWIGAVDPETGSTAYNQKFKVKAILTADKSSSTAYMELRSLTSEDSAVYYCTSRLRRAMDNWGHGTSVTVSS VL: DVVLTQTPLSLPVSPGDQASISCRSSQTLLHSSGNTYLHWFLQKPGQSPKLLIYKVSNRFSGVPDRFSGSGSGTDFTLKISRVEAEDLGVYFCSQNTHVPWTFGGGTKLEIK"
